In patent US20260250318A1, “COMPOSITIONS AND METHODS FOR CROSSING THE BLOOD BRAIN BARRIER” (VOYAGER THERAPEUTICS, INC., priority 2022, published 2026):
Substitutions are numbered along the chain they refer to.

T1: ALPL (Homo sapiens, UniProt P05186)
T1 construct: expressed in transfected cells; host or cells: HEK 293T
T1 sequence (P05186 whole entry, looked up): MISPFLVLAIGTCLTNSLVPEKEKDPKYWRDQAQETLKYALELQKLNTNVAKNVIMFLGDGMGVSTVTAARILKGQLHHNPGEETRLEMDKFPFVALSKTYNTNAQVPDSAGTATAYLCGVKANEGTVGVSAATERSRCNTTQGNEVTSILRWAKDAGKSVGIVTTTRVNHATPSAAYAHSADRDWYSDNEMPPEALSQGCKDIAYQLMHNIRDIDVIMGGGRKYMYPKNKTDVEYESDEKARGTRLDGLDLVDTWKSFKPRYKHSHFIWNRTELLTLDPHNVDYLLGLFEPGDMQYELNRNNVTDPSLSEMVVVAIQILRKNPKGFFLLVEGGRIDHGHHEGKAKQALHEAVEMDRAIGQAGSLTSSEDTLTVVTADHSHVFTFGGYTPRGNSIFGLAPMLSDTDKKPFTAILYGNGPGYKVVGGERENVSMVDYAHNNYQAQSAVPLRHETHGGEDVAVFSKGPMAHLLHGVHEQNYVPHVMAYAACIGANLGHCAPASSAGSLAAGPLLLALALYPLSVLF

T2: AAVR (Homo sapiens, UniProt Q8IZA0)
T2 construct: expressed in transfected cells; host or cells: HEK 293T
T2 sequence (Q8IZA0 whole entry, looked up): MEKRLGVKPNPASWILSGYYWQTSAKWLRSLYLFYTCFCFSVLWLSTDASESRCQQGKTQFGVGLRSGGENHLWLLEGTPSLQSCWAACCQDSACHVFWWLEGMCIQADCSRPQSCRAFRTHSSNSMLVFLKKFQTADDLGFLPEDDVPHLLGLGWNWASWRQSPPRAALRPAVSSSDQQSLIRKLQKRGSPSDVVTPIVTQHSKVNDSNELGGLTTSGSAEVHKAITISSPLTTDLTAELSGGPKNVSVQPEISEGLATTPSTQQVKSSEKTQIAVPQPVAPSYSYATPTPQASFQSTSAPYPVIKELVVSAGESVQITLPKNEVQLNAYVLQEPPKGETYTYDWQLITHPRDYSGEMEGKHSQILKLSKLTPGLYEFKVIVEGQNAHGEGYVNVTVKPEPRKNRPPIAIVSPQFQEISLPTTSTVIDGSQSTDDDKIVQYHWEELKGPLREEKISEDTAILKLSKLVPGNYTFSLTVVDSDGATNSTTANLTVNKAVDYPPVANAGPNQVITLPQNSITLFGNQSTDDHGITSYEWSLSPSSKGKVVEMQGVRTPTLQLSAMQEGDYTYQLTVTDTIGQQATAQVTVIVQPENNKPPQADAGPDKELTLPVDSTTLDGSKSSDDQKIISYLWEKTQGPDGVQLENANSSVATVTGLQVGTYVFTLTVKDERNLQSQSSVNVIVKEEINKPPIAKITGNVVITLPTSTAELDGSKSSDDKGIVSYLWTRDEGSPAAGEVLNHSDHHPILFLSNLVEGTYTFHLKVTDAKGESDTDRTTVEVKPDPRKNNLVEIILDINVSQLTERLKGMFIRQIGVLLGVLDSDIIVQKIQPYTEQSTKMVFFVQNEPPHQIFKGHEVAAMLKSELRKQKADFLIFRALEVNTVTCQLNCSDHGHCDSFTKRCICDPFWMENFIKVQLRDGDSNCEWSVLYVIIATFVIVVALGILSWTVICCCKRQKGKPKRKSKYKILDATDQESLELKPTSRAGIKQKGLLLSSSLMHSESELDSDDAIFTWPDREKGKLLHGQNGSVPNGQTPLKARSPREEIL

B1: TTM-006: AAV9 capsid variant, full length capsid sequence of Table 4 (protein)
chain: MAADGYLPDWLEDNLSEGIREWWALKPGAPQPKANQQHQDNARGLVLPGYKYLGPGNGLDKGEPVNAADAAALEHDKAYDQQLKAGDNPYLKYNHADAEFQERLKEDTSFGGNLGRAVFQAKKRLLEPLGLVEEAAKTAPGKKRPVEQSPQEPDSSAGIGKSGAQPAKKRLNFGQTGDTESVPDPQPIGEPPAAPSGVGSLTMASGGGAPVADNNEGADGVGSSSGNWHCDSQWLGDRVITTSTRTWALPTYNNHLYKQISNSTSGGSSNDNAYFGYSTPWGYFDFNRFHCHFSPRDWQRLINNNWGFRPKRLNFKLFNIQVKEVTDNNGVKTIANNLTSTVQVFTDSDYQLPYVLGSAHEGCLPPFPADVFMIPQYGYLTLNDGSQAVGRSSFYCLEYFPSQMLRTGNNFQFSYEFENVPFHSSYAHSQSLDRLMNPLIDQYLYYLSKTEKMSGSPHSKAQNQQTLKFSVAGPSNMAVQGRNYIPGPSYRQQRVSTTVTQNNNSEFAWPGASSWALNGRNSLMNPGPAMASHKEGEDRFFPLSGSLIFGKQGTGRDNVDADKVMITNEEEIKTTNPVATESYGQVATNHQSAQAQAQTGWVQNQGILPGMVWQDRDVYLQGPIWAKIPHTDGNFHPSPLMGGFGMKHPPPQILIKNTPVPADPPTAFNKDKLNSFITQYSTGQVSVEIEWELQKENSKRWNPEIQYTSNYYKSNNVEFAVNTEGVYSEPRPIGTRYLTRNL
B2: TTM-018: AAV9 capsid variant, full length capsid sequence of Table 4 (protein)
chain: B1 chain with E451I, K452N, M453G, S454H, G455D, Q464L
B3: TTM-019: AAV9 capsid variant, full length capsid sequence of Table 4 (protein)
chain: B1 chain with E451V, K452N, M453G, S454H, G455D

target: T1, ALPL; format: cell-based; conditions: Table 28; ALPL transfected cells
Experimental: (§1) Briefly, a transduction assay was performed in that HEK 293T cells were transfected via calcium phosphate transfection with a plasmid expressing ALPL, an AAVR positive control, or a pCMV6 negative control (250 ng or 500 ng of plasmid). AAVR is a universal AAV entry factor involved in AAV transduction. […] At 24-hours post-transduction, GFP expression and luciferase activity were measured to quantify and observe AAV cellular transduction. […] The TTM-002, TTM-006, TTM-018, and TTM-019 capsid variants all comprised the SPH motif immediately subsequent to position 455, numbered relative to SEQ ID NO: 138 and a positive residue in one of the next three residues subsequent to the SPH motif.
(§2) To determine if the TTM-001 and TTM-002 capsid variants could bind to both the human ALPL protein (NM_000478.6, which is incorporated by reference herein) and the mouse ALPL ortholog (NM_001287172.1, which is incorporated by reference herein), HEK 293T cells were transfected via calcium phosphate transfection with a plasmid expressing human ALPL, the murine ortholog of ALPL, or a pCMV6 negative control. At 24 hours post-transfection, the HEK 293T cells expressing the ALPL receptor were transduced with an AAV particle comprising the TTM-001 capsid variant, the TTM-002 capsid variant, or an AAV9 control capsid protein, expressing a Luc2-GFP payload. At 24-hours post-transduction, luciferase activity (RLU) was measured to quantify AAV cellular transduction.

Molecule	Luciferase Activity (fold change relative to pCMV6 transfected cells) [fold]
B1	91
B2	90
B3	88

same assay, conditions: relative to pCMV6 transfected cells, 24 hours post-transduction

Molecule	fold increase in transduction by luciferase assay in cells expressing ALPL
B1	an increase in transduction
B2	an increase in transduction
B3	an increase in transduction

target: T2, AAVR; format: cell-based; conditions: Table 28; AAVR transfected cells
Experimental: as §1

Molecule	Luciferase Activity (fold change relative to pCMV6 transfected cells) [fold]
B1	25
B2	25
B3	28

tested on: HEK 293T cells transfected with pCMV6 negative control; format: cell-based; conditions: Table 28; pCMV6 transfected cells (negative control, reference)
Experimental: as §1
Three isoforms of ALPL exist, isoform 1 (Alkaline phosphatase, placental-like 2 (ALPPL2), NM_031313, which is incorporated by reference herein), isoform 2 (alkaline phosphatase, placental (ALPP), NM_001632, which is incorporated by reference herein), and isoform 3 (alkaline phosphatase, intestinal (ALPLI), NM_001631, which is incorporated by reference herein), that can also be expressed on cell surfaces via a GPI-anchor. […] The transduction assay described above was repeated with the three isoforms. HEK 293T cells were transfected via calcium phosphate transfection with a plasmid expressing ALPL, isoform 1 of ALPL, isoform 2 of ALPL, isoform 3 of ALPL, an AAVR positive control, or a pCMV6 negative control. At 24 hours post-transfection, the HEK 293T cells expressing the ALPL receptor were transduced with an AAV particle comprising the TTM-001 capsid variant or the TTM-002 capsid variant, expressing a Luc2-GFP payload. At 24-hours post-transduction, luciferase activity (RLU) was measured to quantify AAV cellular transduction.
To determine if deletion of the endoplasmic reticulum (ER) localization signal of ALPL affected transduction of the TTM-001 and TTM-002 capsid variants, HEK 293T cells were transfected via calcium phosphate transfection with a plasmid expressing ALPL, ALP with a deletion of the ER localization signal (ALPL transcript variant 2 that lacks the ER signal (NM_001127501, which is incorporated by reference herein)), or a pCMV6 negative control. At 24 hours post-transfection, the HEK 293T cells expressing the ALPL receptor were transduced with an AAV particle comprising the TTM-001 capsid variant, the TTM-002 capsid variant, or an AAV9 capsid control, expressing a GFP payload. At 24-hours post-transduction, luciferase activity (RLU) was measured to quantify AAV cellular transduction. Data was normalized to fold change in luciferase activity (RLU) compared to the pCMV6 control.
as §2
AAV entry factor involved in AAV transduction), or a pCMV6 negative control.

Molecule	Luciferase Activity (fold change relative to pCMV6 transfected cells) [fold]
B1	1
B2	1
B3	1
